According to the supplement of paper PMC12042874:
± gives the uncertainty stated by the source.

Test: amyloid nucleation score (Sup35N fusion, yeast selection) (log enrichment); library NNK3; higher = more nucleation; inactive = no reads after selection
Summary of the method: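 Libraries of peptides of 20 random codons fused to Sup35N were expressed in psi-negative yeast and induced 24 hours with 100 μM copper sulfate. Selection was 7 days at 30°C on medium lacking adenine and uracil, and plasmid inserts were Illumina-sequenced before and after selection. Nucleation score is the DiMSum log enrichment of output over input reads, centred on the mode score of non-aggregating sequences, and sequences with under 100 input reads were left out.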

Row | Substance | amyloid nucleation score
1 | TKSYFRINMFAVLDRCGLCR | inactive
2 | TKSYPRTMFEPALALDMP | 0.871 ± 0.26
3 | TKWVVASLVCKSAGKTGRVI | inactive
4 | TLCSSGGMFHRSMDSITMS | inactive
5 | TLFWMSYWMRPSNIHCCVRM | inactive
6 | TLHCSVYMCTTYGNTHLYVH | 2.2 ± 0.063
7 | TLIHGGFTYLDQWKDETCPQ | inactive
8 | TLLLAMNDVTSRLL | inactive
9 | TLNLVSSTICLFR | inactive
10 | TLPLTHYVYVVMLKSSSTGC | inactive
11 | TLPMLDNTNNFTSPL | -0.034 ± 0.31
12 | TLPMYTRCTTFAHLSSS | inactive
13 | TLRGMGQHRQR | inactive
14 | TLRMTWALSIRLSPLL | inactive
15 | TLSKILLLSRYLYTRLKVRL | inactive
16 | TLVSQMPCNM | inactive
17 | TLWCNLSSGMMNFPTASRNL | 1 ± 0.091
18 | TLYVFWCEQFKRAYWLYVSK | inactive
19 | TMHYFQNTAIDRYEMTAP | inactive
20 | TMSIFDPVE | 1.09 ± 0.11
21 | TNEIDLSEFMLQITLMLIRG | inactive
22 | TNINSYGLKIESGGWNQLN | inactive
23 | TNLSSSFLTQLRVILMSFLG | 0.798 ± 0.2
24 | TNTNLMYGSGYLLLNGMQCN | inactive

Row | Substance | amyloid nucleation score
25 | TNTRASMFIFCVHSMSLLFY | inactive
26 | TNYFESFY | -0.052 ± 1.2
27 | TPCNRREISWFVFSLPA | inactive
28 | TPGNNSYAVLMLNELTYKPA | 0.92 ± 0.13
29 | TPKLAALFS | -0.497 ± 1.3
30 | TPLARFFTCPHIYYLSPGHS | inactive
31 | TPLITYHQWFLAICEWLDF | inactive
32 | TPNRGDFWITCSGGVGVWYG | inactive
33 | TPTWFLRWWFTVSINNMVIW | inactive
34 | TQGSLTILLGLVTEMLCAYS | inactive
35 | TQNLNRRGKIRVVRDYIDYW | 0.554 ± 0.15
36 | TQRVGERGIIMYHPWIGYYV | 0.189 ± 0.26
37 | TQYMWAYPNND | 1.18 ± 0.16
38 | TRAYVVAIDQYFRGRRRNI | inactive
39 | TRCSG | inactive
40 | TRDFRTCNGLANKVRSKVCS | inactive
41 | TREIIYRDGQALQIAGWVSP | inactive
42 | TRGRNTKDGVDGDLPADVLV | inactive
43 | TRLLAGFSWYVTFPVNVSGS | inactive
44 | TRSFCVSK | inactive
45 | TRSWVYCSKDRSMRGMHHHC | inactive
46 | TRVDGTYKYRLFDLCDAIKF | inactive
47 | TRWGFVCNKTHVLGDMSIGM | inactive
48 | TRYLSSFISYGEDSMHVFCG | inactive

Row | Substance | amyloid nucleation score
49 | TSCFYFAMVFEQVDWDSVHT | 1.58 ± 0.11
50 | TSCRLRV | inactive
51 | TSIIRMAPRPTHSRVIWFKV | inactive
52 | TSLASNFANVTSVTCY | -0.679 ± 1
53 | TSLLINVVLMVNRPGCP | 1.67 ± 0.061
54 | TSLVKRSALVFYTGTLIYPF | inactive
55 | TSMMSWQSSHCHVYWRTDWV | 0.457 ± 0.4
56 | TSNFCPFTVQN | -0.477 ± 0.8
57 | TSSAHNTRSCLMM | inactive
58 | TSSHLIGLFYDMLFRDTRSM | inactive
59 | TSSLWHWMCLEITLPSRSCK | inactive
60 | TSSNRVLVIPVELMIPWRF | -0.299 ± 1.1
61 | TSTSAYILGPVTQ | inactive
62 | TSWRVFVGYWMG | inactive
63 | TSYVLWLSRLYFVANPSDYS | inactive
64 | TSYYIYTVSFDGCCSNLRTV | 1.56 ± 0.13
65 | TTCWVYMLVILA | 1.38 ± 0.077
66 | TTDLKC | inactive
67 | TTEEL | inactive
68 | TTGLFE | inactive
69 | TTHVILCLCNL | 3.07 ± 0.073
70 | TTLMMGTEPGLDTRLSSLCY | inactive
71 | TTMRCEIKSLYWIISQCWLD | inactive
72 | TTSCEVAWFEICLSSLNFTM | inactive

Row | Substance | amyloid nucleation score
73 | TTSLKTHVLPRNVFRFEPYM | inactive
74 | TTTCHLRIKSNMRLSQEWLG | 1.17 ± 0.12
75 | TTVDDNFVHRRPM | inactive
76 | TVACNVFYQLCVE | inactive
77 | TVANTNRTALNLMLEMGLGL | inactive
78 | TVFMYRRVFSIRWG | inactive
79 | TVHSHKWCSLVGGPIRISWT | inactive
80 | TVICISHTFSGHCLSSYEVW | inactive
81 | TVIMNLYAPP | 2.51 ± 0.053
82 | TVNLDQMYYMVFCVFRSMHD | 0.498 ± 0.43
83 | TVNQKPY | inactive
84 | TVNYYRQNSIIMFESYNECC | 0.579 ± 0.17
85 | TVRASFGYNLRNWCSTVVVE | inactive
86 | TVRYVVSASTWHMSLQSPTL | 1.33 ± 0.11
87 | TVRYVYTCFINFQTLVHRRM | -0.784 ± 0.8
88 | TVSGQLIT | inactive
89 | TVSIKSAHATRTQVVPNMSF | inactive
90 | TVTGIMSKYANTSFRN | inactive
91 | TVTVPG | inactive
92 | TVWELM | -0.068 ± 0.33
93 | TVYFNYRVWHTMARKQKLSS | inactive
94 | TWATVTMVWCLNVNSVDTGL | 2.26 ± 0.094
95 | TWILFFVN | 1.78 ± 0.062
96 | TWKHFFIALLRRSNY | inactive

Row | Substance | amyloid nucleation score
97 | TWLMFIFNSRYL | 1.51 ± 0.074
98 | TWLSFIRLNMMPINTSTCYP | inactive
99 | TWRYRKMYYRSDVNHCLFEV | inactive
100 | TWTDCERRLDIVKEMLNYIQ | inactive
101 | TYFYAFALTVPYSWHSEDRM | 2.04 ± 0.054
102 | TYGTCVGQK | inactive
103 | TYHSCY | inactive
104 | TYIVAEANVRSVGDEQSMMN | inactive
105 | TYKVFL | inactive
106 | TYLLFGSTLGLSQWVYLDVE | inactive
107 | TYLLNGTILLNPCKLC | inactive
108 | TYLVNSDMMGDRIFGACRDV | inactive
109 | TYMSNNTMGEFFLNLRVNLY | 2.44 ± 0.068
110 | TYTSVGETS | inactive
111 | TYTYIGIKAFCDLYRSKMGV | inactive
112 | TYWVGWML | inactive
113 | TYYGCYLVGR | 0.01 ± 0.66
114 | VAAMYGILMMLMELVWSDAR | inactive
115 | VAFYVTHGAIVYFSMGCAGI | 1.63 ± 0.11
116 | VAIIAYQWSIPSMAGPVNRR | 0.652 ± 0.28
117 | VALLTYFWYGPIKGVAS | inactive
118 | VALWGSWRRPWDAVAFDRTG | inactive
119 | VANIFVVISIVGVDTRLFIV | 0.519 ± 0.23
120 | VANYGQVQHWYRGYVEDEGL | inactive

Row | Substance | amyloid nucleation score
121 | VAPLAILDRKSKSLVGNNMA | inactive
122 | VAQRELWEEAIRCRYEH | inactive
123 | VARELGLCYVWAGSRGVSRV | -0.323 ± 1.8
124 | VAWRLFQNVWVHTGSDGYTV | -0.601 ± 1.1
125 | VAYNRGSQCCR | inactive
126 | VCADIVLPQMDLPGSSGREK | inactive
127 | VCANLSWPFLSNTLLFVCLG | inactive
128 | VCAVSFGRWYG | inactive
129 | VCCSYY | 1.32 ± 0.11
130 | VCFRNAFFHCSQMRTCNRVI | 0.262 ± 0.74
131 | VCGASGCKWAVTNSRHDGNG | inactive
132 | VCNQS | inactive
133 | VCRRTGSKITFGQWKVYFSS | inactive
134 | VCSFDMRDLQKTE | inactive
135 | VCTPNRCLSTLSR | inactive
136 | VCVRKLELGDCLKCG | inactive
137 | VCVRYFGDIFYVLYTFVMRA | 0.051 ± 0.46
138 | VCWSHKCRVDVS | inactive
139 | VCYKPFTSVYLVCTYHLFKS | inactive
140 | VDEFFGRGVHWLTVRLGLGM | inactive
141 | VDLYV | inactive
142 | VDNIVVVCCFKDNCLSKG | 1.85 ± 0.09
143 | VDNNHYQRKSKGFGVAGLIR | inactive
144 | VDSDHIIHSTVLISVLGELD | inactive

Row | Substance | amyloid nucleation score
145 | VDTYHTFVVVLH | inactive
146 | VDVFK | inactive
147 | VDVVLGMSIG | inactive
148 | VEDGAGGP | inactive
149 | VEDLMF | inactive
150 | VEDWATILSYY | inactive
151 | VEFIEFMYDPSYYVSNQNST | inactive
152 | VEGRCPLNH | inactive
153 | VEHSFYSLVCHRTDLF | inactive
154 | VEIGCANSRWDLLGVVCCLG | 1.27 ± 0.17
155 | VELSNVFWGERYIKGLLTDL | inactive
156 | VENVDYFCDFGTISIL | 1.66 ± 0.087
157 | VFCLVYKKCLKSYCQYMVIG | inactive
158 | VFCSSDTAFPEGTTVSSRSR | inactive
159 | VFEVEPNLGIGYSAKACNVG | inactive
160 | VFFMNYGHVIVHFEKFFGGN | 2.6 ± 0.082
161 | VFFRYWV | 1.62 ± 0.073
162 | VFGPLYSSYDIRQ | inactive
